# Assays:
# [1] = target: mitochondrial 28S small ribosomal subunit (bovine); test: Microcon-100 centrifugation with dot blot immunodetection
# [2] = target: mitochondrial 28S small ribosomal subunit (bovine); test: co-sedimentation
# [3] = target: C-terminal domain of IF3mt with the linker, His6-tagged (human); test: SPR
# [4] = target: mitochondrial 28S small ribosomal subunit (bovine); test: dot blot of epitope exposure
Kd [1],Substance,further results
60 nM,"C-terminal domain of IF3mt with the linker, His6-tagged (domain or fragment)",–
95 nM,"C-terminal domain of IF3mt without the linker, His6-tagged (domain or fragment)",–
232 nM,untagged N-domain of IF3mt with the linker (His-tag removed with TEV protease) (domain or fragment),–

# Continued, substance first:
Substance,Kd [1],further results
"N-terminal domain of IF3mt with the linker, His6-tagged (domain or fragment)",240 nM,Kd [2]: 277 nM
"N-terminal domain of IF3mt without the linker, His6-tagged (domain or fragment)",390 nM,–
mitochondrial 28S small ribosomal subunit (complex),–,Kd [3]: 44 nM; koff [3]: 0.0092 s⁻¹; kon [3]: 210000 M⁻¹ s⁻¹
"mitochondrial initiation factor 3, mature full-length form, His-tagged (from UniProt Q9H2K0 32-278) (natural protein)",–,quenching of the antigenic response on binding [4]: 80%; Kd [2]: 35 nM
untagged C-domain of IF3mt with the linker (His-tag removed with TEV protease) (domain or fragment),70 nM,–
"untagged IF3mt (mature full-length form, His-tag removed with TEV protease) (from UniProt Q9H2K0 32-278) (natural protein)",40 nM,–
